US20260167699A1 (Chugai, published 2026)

B1: Kn125-L2b-3 (antibody, human IgG1, kappa)
heavy 1: QDQLVQSGAEVKKPGASVKVSCKASGFNIKDTYIQWVRQAPGQGLEWMGRIDPLRKQTKYREKFEGRVTITADTSTNTAYMELSSLRSEDTAVYYCVRSGREFDYWGQGTLVTVSSASTKGPSVFPLAPSSKSTSGGTAALGCLVKDYFPEPVTVSWNSGALTSGVHTFPAVLQSSGLYSLSSVVTVPSSSLGTQTYICNVNHKPSNTKVDKKVEPKSCDKTHTCPPCPAPELLGGPSVFLFPPKPKDTLMISRTPEVTCVVVDVSHEEPEVKFNWYVDGVEVHNAKTKPREEQYNSTYRVVSVLTVLHQDWLNGKEYKCKVSNDALPMPIEETISKAKGQPREPQVYTLPPSRCELTKNQVSLSCAVKGFYPSDIAVEWESNGQPENNYKTTPPVLDSDGSFFLVSKLTVDKSRWQQGNVFSCSVMHEALHNHYTQKSLSLSP
heavy 2: QDQLVQSGAEVKKPGASVKVSCKASGFNIKDTYIQWVRQAPGQGLEWMGRIDPLRKQTKYREKFEGRVTITADTSTNTAYMELSSLRSEDTAVYYCVRSGREFDYWGQGTLVTVSSASTKGPSVFPLAPSSKSTSGGTAALGCLVKDYFPEPVTVSWNSGALTSGVHTFPAVLQSSGLYSLSSVVTVPSSSLGTQTYICNVNHKPSNTKVDKKVEPKSCDKTHTCPPCPAPEYQWGPMVFLFPPKPKDTLMISRTPEVTCVVVDVSDEEGGSPEVKFNWYVDGVEVHNAKTKPREEQYNATYRVVSVLTVLHQDWLNGKEYKCKVSNKALPAPIEKTISKAKGQPREPQVCTLPPSRDELTKNQVSLWCLVKGFYPSDIAVEWESNGQPENNYKTTPPVLDSDGSFFLYSKLTVDKSRWQQGNVFSCSVMHEALHNHYTQKSLSLSP
light: DIQMTQSPSSLSASVGDRVTITCRASQDIHKYIAWYQQKPGQAPRLLIQYTSTLQPGVPSRFSGSGSGTDYTFTISSLQPEDIATYYCLQYEQLRTFGGGTKVEIKRTVAAPSVFIFPPSDEQLKSGTASVVCLLNNFYPREAKVQWKVDNALQSGNSQESVTEQDSKDSTYSLSSTLTLSKADYEKHKVYACEVTHQGLSSPVTKSFNRGEC
notes: heterodimerized anti-EREG antibody: altered H240-Kn125 chain (Gly/Ser peptide in loop) with H240-Hl076 and L73-k0
B2: Kn125-L2a-6 (antibody, human IgG1, kappa)
heavy 1: QDQLVQSGAEVKKPGASVKVSCKASGFNIKDTYIQWVRQAPGQGLEWMGRIDPLRKQTKYREKFEGRVTITADTSTNTAYMELSSLRSEDTAVYYCVRSGREFDYWGQGTLVTVSSASTKGPSVFPLAPSSKSTSGGTAALGCLVKDYFPEPVTVSWNSGALTSGVHTFPAVLQSSGLYSLSSVVTVPSSSLGTQTYICNVNHKPSNTKVDKKVEPKSCDKTHTCPPCPAPELLGGPSVFLFPPKPKDTLMISRTPEVTCVVVDVSHEEPEVKFNWYVDGVEVHNAKTKPREEQYNSTYRVVSVLTVLHQDWLNGKEYKCKVSNDALPMPIEETISKAKGQPREPQVYTLPPSRCELTKNQVSLSCAVKGFYPSDIAVEWESNGQPENNYKTTPPVLDSDGSFFLVSKLTVDKSRWQQGNVFSCSVMHEALHNHYTQKSLSLSP
heavy 2: QDQLVQSGAEVKKPGASVKVSCKASGFNIKDTYIQWVRQAPGQGLEWMGRIDPLRKQTKYREKFEGRVTITADTSTNTAYMELSSLRSEDTAVYYCVRSGREFDYWGQGTLVTVSSASTKGPSVFPLAPSSKSTSGGTAALGCLVKDYFPEPVTVSWNSGALTSGVHTFPAVLQSSGLYSLSSVVTVPSSSLGTQTYICNVNHKPSNTKVDKKVEPKSCDKTHTCPPCPAPEYQWGPMVFLFPPKPKDTLMISRTPEVTCVVVDVSDEGGSGGSEPEVKFNWYVDGVEVHNAKTKPREEQYNATYRVVSVLTVLHQDWLNGKEYKCKVSNKALPAPIEKTISKAKGQPREPQVCTLPPSRDELTKNQVSLWCLVKGFYPSDIAVEWESNGQPENNYKTTPPVLDSDGSFFLYSKLTVDKSRWQQGNVFSCSVMHEALHNHYTQKSLSLSP
light: DIQMTQSPSSLSASVGDRVTITCRASQDIHKYIAWYQQKPGQAPRLLIQYTSTLQPGVPSRFSGSGSGTDYTFTISSLQPEDIATYYCLQYEQLRTFGGGTKVEIKRTVAAPSVFIFPPSDEQLKSGTASVVCLLNNFYPREAKVQWKVDNALQSGNSQESVTEQDSKDSTYSLSSTLTLSKADYEKHKVYACEVTHQGLSSPVTKSFNRGEC
notes: as for B1
B3: Kn125-L2a-9 (antibody, human IgG1, kappa)
heavy 1: QDQLVQSGAEVKKPGASVKVSCKASGFNIKDTYIQWVRQAPGQGLEWMGRIDPLRKQTKYREKFEGRVTITADTSTNTAYMELSSLRSEDTAVYYCVRSGREFDYWGQGTLVTVSSASTKGPSVFPLAPSSKSTSGGTAALGCLVKDYFPEPVTVSWNSGALTSGVHTFPAVLQSSGLYSLSSVVTVPSSSLGTQTYICNVNHKPSNTKVDKKVEPKSCDKTHTCPPCPAPELLGGPSVFLFPPKPKDTLMISRTPEVTCVVVDVSHEEPEVKFNWYVDGVEVHNAKTKPREEQYNSTYRVVSVLTVLHQDWLNGKEYKCKVSNDALPMPIEETISKAKGQPREPQVYTLPPSRCELTKNQVSLSCAVKGFYPSDIAVEWESNGQPENNYKTTPPVLDSDGSFFLVSKLTVDKSRWQQGNVFSCSVMHEALHNHYTQKSLSLSP
heavy 2: QDQLVQSGAEVKKPGASVKVSCKASGFNIKDTYIQWVRQAPGQGLEWMGRIDPLRKQTKYREKFEGRVTITADTSTNTAYMELSSLRSEDTAVYYCVRSGREFDYWGQGTLVTVSSASTKGPSVFPLAPSSKSTSGGTAALGCLVKDYFPEPVTVSWNSGALTSGVHTFPAVLQSSGLYSLSSVVTVPSSSLGTQTYICNVNHKPSNTKVDKKVEPKSCDKTHTCPPCPAPEYQWGPMVFLFPPKPKDTLMISRTPEVTCVVVDVSDEGGSGGSGGSEPEVKFNWYVDGVEVHNAKTKPREEQYNATYRVVSVLTVLHQDWLNGKEYKCKVSNKALPAPIEKTISKAKGQPREPQVCTLPPSRDELTKNQVSLWCLVKGFYPSDIAVEWESNGQPENNYKTTPPVLDSDGSFFLYSKLTVDKSRWQQGNVFSCSVMHEALHNHYTQKSLSLSP
light: DIQMTQSPSSLSASVGDRVTITCRASQDIHKYIAWYQQKPGQAPRLLIQYTSTLQPGVPSRFSGSGSGTDYTFTISSLQPEDIATYYCLQYEQLRTFGGGTKVEIKRTVAAPSVFIFPPSDEQLKSGTASVVCLLNNFYPREAKVQWKVDNALQSGNSQESVTEQDSKDSTYSLSSTLTLSKADYEKHKVYACEVTHQGLSSPVTKSFNRGEC
notes: as for B1
B4: Kn125-L2b-6 (antibody, human IgG1, kappa)
heavy 1: QDQLVQSGAEVKKPGASVKVSCKASGFNIKDTYIQWVRQAPGQGLEWMGRIDPLRKQTKYREKFEGRVTITADTSTNTAYMELSSLRSEDTAVYYCVRSGREFDYWGQGTLVTVSSASTKGPSVFPLAPSSKSTSGGTAALGCLVKDYFPEPVTVSWNSGALTSGVHTFPAVLQSSGLYSLSSVVTVPSSSLGTQTYICNVNHKPSNTKVDKKVEPKSCDKTHTCPPCPAPELLGGPSVFLFPPKPKDTLMISRTPEVTCVVVDVSHEEPEVKFNWYVDGVEVHNAKTKPREEQYNSTYRVVSVLTVLHQDWLNGKEYKCKVSNDALPMPIEETISKAKGQPREPQVYTLPPSRCELTKNQVSLSCAVKGFYPSDIAVEWESNGQPENNYKTTPPVLDSDGSFFLVSKLTVDKSRWQQGNVFSCSVMHEALHNHYTQKSLSLSP
heavy 2: QDQLVQSGAEVKKPGASVKVSCKASGFNIKDTYIQWVRQAPGQGLEWMGRIDPLRKQTKYREKFEGRVTITADTSTNTAYMELSSLRSEDTAVYYCVRSGREFDYWGQGTLVTVSSASTKGPSVFPLAPSSKSTSGGTAALGCLVKDYFPEPVTVSWNSGALTSGVHTFPAVLQSSGLYSLSSVVTVPSSSLGTQTYICNVNHKPSNTKVDKKVEPKSCDKTHTCPPCPAPEYQWGPMVFLFPPKPKDTLMISRTPEVTCVVVDVSDEEGGSGGSPEVKFNWYVDGVEVHNAKTKPREEQYNATYRVVSVLTVLHQDWLNGKEYKCKVSNKALPAPIEKTISKAKGQPREPQVCTLPPSRDELTKNQVSLWCLVKGFYPSDIAVEWESNGQPENNYKTTPPVLDSDGSFFLYSKLTVDKSRWQQGNVFSCSVMHEALHNHYTQKSLSLSP
light: DIQMTQSPSSLSASVGDRVTITCRASQDIHKYIAWYQQKPGQAPRLLIQYTSTLQPGVPSRFSGSGSGTDYTFTISSLQPEDIATYYCLQYEQLRTFGGGTKVEIKRTVAAPSVFIFPPSDEQLKSGTASVVCLLNNFYPREAKVQWKVDNALQSGNSQESVTEQDSKDSTYSLSSTLTLSKADYEKHKVYACEVTHQGLSSPVTKSFNRGEC
notes: as for B1

These binders were tested against T1, FcγRIIIaV (human, UniProt P08637 17-208) (assay: SPR (Biacore), antibody captured, FcγR as analyte, 1:1 Langmuir fit).
T1 construct: extracellular domain
T1 sequence (P08637 other isoform, or with tags, fused parts or gaps): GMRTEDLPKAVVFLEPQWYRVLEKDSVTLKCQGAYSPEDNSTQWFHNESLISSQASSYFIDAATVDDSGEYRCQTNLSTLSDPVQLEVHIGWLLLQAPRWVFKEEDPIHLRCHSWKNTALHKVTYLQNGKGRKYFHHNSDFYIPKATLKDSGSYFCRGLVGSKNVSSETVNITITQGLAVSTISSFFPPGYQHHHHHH

B1 and B2 are within 1.5-fold of each other in Kd: 7.8 nM for the first, 9.2 nM for the second.

Compared with B3, B4 is 1.7-fold lower in Kd: 11 nM for the first, 6.3 nM for the second.
